Measurements: the supplement of paper PMC10065799, “High-throughput profiling of sequence recognition by tyrosine kinases and SH2 domains using bacterial peptide display” (eLife, 2023)

Key:
Grb2 SH2 = Grb2 SH2 (UniProt P62993); experiment: SH2 binding enrichment of the phosphorylated peptide, bacterial display (enrichment ratio); higher = better substrate or ligand; peptides without Tyr show the background
c-Src SH2 = experiment: as above
SHP2-C SH2 = experiment: as above
EPHB1 = EPHB1 (UniProt P54762); experiment: phosphorylation enrichment, bacterial display (enrichment ratio); higher = better substrate or ligand; peptides without Tyr show the background
Hck = Hck (UniProt P08631); experiment: as above
Jak2 = Jak2 (UniProt O60674); experiment: as above
FGFR3 = FGFR3 (UniProt P22607); experiment: as above
Fer (mouse) = experiment: as above
EPHB2 = EPHB2 (UniProt P29323); experiment: as above
Fyn = Fyn (UniProt P06241); experiment: as above
Fes = Fes (UniProt P07332); experiment: as above
c-Abl (mouse) = experiment: as above
MERTK = MERTK (UniProt Q12866); experiment: as above
c-Src = experiment: as above
FGFR1 = FGFR1 (UniProt P11362); experiment: as above
AncSZ = experiment: as above
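Wherever SH2 binding enrichment of the phosphorylated peptide, bacterial display is given: peptide library displayed on the E. coli surface as eCPX fusions, selected cells deep-sequenced, score is each peptide's frequency after selection divided by its frequency in the input.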
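Wherever phosphorylation enrichment, bacterial display is given: 11-residue human phosphosite peptides and single-mutation variants displayed on the E. coli surface, counted by deep sequencing, each peptide's frequency after selection divided by its frequency in the unselected input library; frequency after pTyr selection over input frequency; kinase dosed for 20-30% of maximal phosphorylation in three min.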

Sequence of MERTK (Q12866 whole entry, looked up): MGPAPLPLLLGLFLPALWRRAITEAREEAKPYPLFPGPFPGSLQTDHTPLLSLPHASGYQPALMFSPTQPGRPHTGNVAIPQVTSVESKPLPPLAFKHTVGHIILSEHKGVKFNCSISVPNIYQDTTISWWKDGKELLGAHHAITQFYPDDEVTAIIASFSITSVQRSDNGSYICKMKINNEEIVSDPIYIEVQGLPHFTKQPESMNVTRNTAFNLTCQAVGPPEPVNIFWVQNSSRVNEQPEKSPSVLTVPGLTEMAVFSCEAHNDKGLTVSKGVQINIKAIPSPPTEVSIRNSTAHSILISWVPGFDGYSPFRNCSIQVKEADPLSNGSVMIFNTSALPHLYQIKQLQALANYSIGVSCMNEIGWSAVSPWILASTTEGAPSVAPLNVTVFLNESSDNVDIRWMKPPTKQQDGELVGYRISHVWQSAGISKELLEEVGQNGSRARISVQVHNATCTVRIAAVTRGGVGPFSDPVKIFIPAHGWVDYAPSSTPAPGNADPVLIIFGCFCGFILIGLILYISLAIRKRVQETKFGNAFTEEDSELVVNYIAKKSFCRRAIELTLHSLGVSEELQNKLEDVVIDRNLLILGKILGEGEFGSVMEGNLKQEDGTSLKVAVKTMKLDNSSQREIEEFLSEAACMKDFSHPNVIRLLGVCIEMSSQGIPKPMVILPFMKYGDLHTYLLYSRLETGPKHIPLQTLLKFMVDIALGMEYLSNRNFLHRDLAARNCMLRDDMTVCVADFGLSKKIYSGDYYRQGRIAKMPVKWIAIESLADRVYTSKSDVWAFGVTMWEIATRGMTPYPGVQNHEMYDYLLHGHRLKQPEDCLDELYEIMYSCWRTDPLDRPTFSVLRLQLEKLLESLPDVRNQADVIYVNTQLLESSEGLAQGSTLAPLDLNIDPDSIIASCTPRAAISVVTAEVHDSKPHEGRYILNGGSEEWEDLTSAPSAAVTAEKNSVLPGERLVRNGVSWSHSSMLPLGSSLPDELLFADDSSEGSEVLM
Sequence of Grb2 SH2 (P62993 whole entry, looked up): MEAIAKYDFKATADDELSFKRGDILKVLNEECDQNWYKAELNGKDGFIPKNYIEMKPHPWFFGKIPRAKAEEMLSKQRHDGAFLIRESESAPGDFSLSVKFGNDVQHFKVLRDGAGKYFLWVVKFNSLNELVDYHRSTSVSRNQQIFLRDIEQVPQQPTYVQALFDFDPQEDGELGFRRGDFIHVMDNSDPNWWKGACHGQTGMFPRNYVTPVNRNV
Sequence of Fyn (P06241 whole entry, looked up): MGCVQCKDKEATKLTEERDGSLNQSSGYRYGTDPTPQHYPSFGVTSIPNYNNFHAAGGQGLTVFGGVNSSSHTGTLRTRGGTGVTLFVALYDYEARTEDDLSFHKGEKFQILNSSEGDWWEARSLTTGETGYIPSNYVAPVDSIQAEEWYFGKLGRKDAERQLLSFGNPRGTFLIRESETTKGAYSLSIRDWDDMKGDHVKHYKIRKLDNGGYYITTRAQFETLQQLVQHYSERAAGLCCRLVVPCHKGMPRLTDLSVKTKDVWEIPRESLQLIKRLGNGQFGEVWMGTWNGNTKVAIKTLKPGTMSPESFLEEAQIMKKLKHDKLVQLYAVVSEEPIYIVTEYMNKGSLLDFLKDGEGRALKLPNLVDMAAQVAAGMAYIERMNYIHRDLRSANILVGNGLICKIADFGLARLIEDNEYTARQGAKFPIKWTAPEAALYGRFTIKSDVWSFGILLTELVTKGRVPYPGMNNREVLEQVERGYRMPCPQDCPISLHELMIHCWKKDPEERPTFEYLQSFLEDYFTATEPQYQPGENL
Sequence of Hck (P08631 whole entry, looked up): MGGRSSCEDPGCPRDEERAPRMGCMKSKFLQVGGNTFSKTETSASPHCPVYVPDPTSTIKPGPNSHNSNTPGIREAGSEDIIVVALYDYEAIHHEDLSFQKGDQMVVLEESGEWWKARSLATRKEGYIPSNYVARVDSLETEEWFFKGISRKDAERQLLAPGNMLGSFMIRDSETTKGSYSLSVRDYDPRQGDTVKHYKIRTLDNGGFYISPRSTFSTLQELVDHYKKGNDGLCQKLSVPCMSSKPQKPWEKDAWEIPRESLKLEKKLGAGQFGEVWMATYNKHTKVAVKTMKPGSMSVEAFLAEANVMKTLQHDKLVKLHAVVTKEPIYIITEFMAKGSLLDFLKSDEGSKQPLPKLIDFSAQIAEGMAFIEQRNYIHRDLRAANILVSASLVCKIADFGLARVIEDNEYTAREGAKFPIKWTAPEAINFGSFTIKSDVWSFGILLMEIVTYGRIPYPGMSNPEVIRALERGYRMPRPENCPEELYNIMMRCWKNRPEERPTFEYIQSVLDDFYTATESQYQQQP
Sequence of EPHB2 (P29323 whole entry, looked up): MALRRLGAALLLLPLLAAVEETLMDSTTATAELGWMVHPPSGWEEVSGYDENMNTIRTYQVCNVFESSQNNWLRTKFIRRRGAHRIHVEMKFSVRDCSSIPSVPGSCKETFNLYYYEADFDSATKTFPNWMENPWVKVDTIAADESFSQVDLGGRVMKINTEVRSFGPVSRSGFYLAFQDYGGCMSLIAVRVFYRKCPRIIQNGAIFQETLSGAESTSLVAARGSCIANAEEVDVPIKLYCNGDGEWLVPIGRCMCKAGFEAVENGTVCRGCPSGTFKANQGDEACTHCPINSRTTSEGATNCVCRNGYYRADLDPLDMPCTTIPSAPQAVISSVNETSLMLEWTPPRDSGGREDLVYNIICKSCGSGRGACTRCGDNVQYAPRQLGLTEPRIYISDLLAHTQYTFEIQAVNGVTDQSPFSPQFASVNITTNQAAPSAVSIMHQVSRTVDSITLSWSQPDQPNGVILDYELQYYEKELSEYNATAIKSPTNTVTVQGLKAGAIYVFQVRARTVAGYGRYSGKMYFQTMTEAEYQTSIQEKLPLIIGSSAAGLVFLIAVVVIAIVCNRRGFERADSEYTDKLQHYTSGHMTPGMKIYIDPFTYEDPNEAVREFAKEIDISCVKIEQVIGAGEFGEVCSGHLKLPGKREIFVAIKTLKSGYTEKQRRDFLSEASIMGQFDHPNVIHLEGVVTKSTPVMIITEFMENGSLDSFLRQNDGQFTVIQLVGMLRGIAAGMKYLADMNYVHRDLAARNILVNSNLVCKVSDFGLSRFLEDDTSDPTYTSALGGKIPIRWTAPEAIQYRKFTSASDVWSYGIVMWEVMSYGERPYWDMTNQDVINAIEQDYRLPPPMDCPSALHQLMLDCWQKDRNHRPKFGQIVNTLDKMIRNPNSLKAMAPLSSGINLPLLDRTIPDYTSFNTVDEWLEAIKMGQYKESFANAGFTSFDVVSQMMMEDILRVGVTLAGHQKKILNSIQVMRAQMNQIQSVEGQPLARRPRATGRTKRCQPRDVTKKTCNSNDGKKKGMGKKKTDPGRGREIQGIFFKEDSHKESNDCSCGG
Sequence of Fes (P07332 whole entry, looked up): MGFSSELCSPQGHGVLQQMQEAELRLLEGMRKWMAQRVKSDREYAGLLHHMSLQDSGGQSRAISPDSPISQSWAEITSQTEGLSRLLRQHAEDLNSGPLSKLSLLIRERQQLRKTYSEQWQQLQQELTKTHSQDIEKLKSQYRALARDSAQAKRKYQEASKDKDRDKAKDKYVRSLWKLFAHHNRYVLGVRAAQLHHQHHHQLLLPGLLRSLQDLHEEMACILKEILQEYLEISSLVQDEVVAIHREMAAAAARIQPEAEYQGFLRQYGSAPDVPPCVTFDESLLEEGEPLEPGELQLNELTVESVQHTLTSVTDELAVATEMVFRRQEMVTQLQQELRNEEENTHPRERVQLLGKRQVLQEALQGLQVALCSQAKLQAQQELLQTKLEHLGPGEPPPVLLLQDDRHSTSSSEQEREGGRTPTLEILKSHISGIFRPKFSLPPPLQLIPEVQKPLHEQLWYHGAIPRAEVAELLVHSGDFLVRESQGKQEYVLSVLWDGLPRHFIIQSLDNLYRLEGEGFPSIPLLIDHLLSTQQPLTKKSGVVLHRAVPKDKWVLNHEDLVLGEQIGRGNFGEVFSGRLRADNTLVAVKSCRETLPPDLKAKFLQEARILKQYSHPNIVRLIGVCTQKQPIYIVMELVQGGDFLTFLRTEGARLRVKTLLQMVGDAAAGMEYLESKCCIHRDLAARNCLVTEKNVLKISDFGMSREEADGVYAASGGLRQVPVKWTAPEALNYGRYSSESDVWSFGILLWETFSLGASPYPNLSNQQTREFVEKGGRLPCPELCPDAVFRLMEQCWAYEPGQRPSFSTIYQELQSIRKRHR
Sequence of FGFR1 (P11362 whole entry, looked up): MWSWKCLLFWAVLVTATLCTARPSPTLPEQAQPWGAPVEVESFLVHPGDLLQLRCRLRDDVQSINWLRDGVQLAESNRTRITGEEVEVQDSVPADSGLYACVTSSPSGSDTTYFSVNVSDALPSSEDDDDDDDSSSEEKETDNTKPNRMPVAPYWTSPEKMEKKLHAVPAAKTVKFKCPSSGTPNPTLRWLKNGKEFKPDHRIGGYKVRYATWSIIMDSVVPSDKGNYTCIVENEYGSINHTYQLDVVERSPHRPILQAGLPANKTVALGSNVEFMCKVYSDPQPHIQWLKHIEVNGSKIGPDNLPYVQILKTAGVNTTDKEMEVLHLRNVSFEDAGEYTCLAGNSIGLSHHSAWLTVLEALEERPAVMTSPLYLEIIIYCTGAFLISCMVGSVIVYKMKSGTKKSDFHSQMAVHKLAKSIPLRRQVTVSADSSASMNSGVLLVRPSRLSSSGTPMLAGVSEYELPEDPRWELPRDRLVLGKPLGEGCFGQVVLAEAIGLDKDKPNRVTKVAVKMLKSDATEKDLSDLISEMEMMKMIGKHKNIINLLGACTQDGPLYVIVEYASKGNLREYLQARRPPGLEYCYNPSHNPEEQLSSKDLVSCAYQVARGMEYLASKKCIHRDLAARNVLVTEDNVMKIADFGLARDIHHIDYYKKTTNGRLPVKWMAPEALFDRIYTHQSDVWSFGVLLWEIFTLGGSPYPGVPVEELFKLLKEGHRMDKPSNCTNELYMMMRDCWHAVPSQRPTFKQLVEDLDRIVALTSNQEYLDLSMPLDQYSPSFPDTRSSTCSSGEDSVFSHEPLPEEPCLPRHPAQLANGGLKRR

Sequence | SH2 binding enrichment (Grb2 SH2) | SH2 binding enrichment (c-Src SH2) | SH2 binding enrichment (SHP2-C SH2) | phosphorylation enrichment (EPHB1) | phosphorylation enrichment (Hck) | phosphorylation enrichment (Jak2) | phosphorylation enrichment (FGFR3) | phosphorylation enrichment (Fer (mouse)) | phosphorylation enrichment (EPHB2) | phosphorylation enrichment (Fyn) | phosphorylation enrichment (Fes) | phosphorylation enrichment (c-Abl (mouse)) | phosphorylation enrichment (MERTK) | phosphorylation enrichment (c-Src) | phosphorylation enrichment (FGFR1) | phosphorylation enrichment (AncSZ)
KLGDVYVNDAF [PGK1_Y161] | 2.38 | 1.39 | 0.729 | 0.467 | 0.488 | 0.801 | 0.63 | 0.547 | 0.571 | 0.552 | 0.86 | 0.574 | 0.395 | 0.423 | 0.557 | 0.734
KLIETCFSKNY [PLP1_Y50_Y50C] | 0.748 | 0.447 | 0.652 | 0.576 | 0.621 | 1.13 | 0.739 | 0.47 | 0.555 | 0.456 | 1.38 | 0.973 | 0.474 | 0.524 | 0.473 | 1.07
KLKRSYPSPDI [USP8_Y717_S718P] | 0.773 | 0.378 | 0.723 | 0.374 | 0.381 | 0.58 | 0.411 | 0.339 | 0.291 | 0.374 | 0.546 | 0.547 | 0.467 | 0.469 | 0.352 | 0.436
KLLLKYSFHDV [RNF213_Y4141] | 1.15 | 0.851 | 1.04 | 0.56 | 0.506 | 1.57 | 0.808 | 0.537 | 0.598 | 0.418 | 1.31 | 0.878 | 0.4 | 0.436 | 0.439 | 1.27
KLPYLYDDPFS [GPX2_Y127_P126L] | 0.765 | 2.42 | 0.797 | 3.22 | 1.46 | 0.997 | 0.689 | 1.28 | 4.17 | 0.695 | 1.3 | 1.12 | 2.58 | 0.906 | 0.489 | 1.22
KLQKKYGPIFS [CYP17A1_Y60_YF] | 0.882 | 0.461 | 0.754 | 0.377 | 0.383 | 0.583 | 0.415 | 0.324 | 0.39 | 0.38 | 0.503 | 0.505 | 0.39 | 0.489 | 0.308 | 0.555
KLQKKYGPIYS [CYP17A1_Y60] | 1.01 | 0.588 | 0.819 | 0.361 | 2.26 | 0.378 | 0.438 | 0.39 | 0.351 | 1.59 | 0.468 | 0.451 | 0.422 | 1.17 | 0.318 | 0.433
KLQKYYRKNPD [EHHADH_Y683_Q685K] | 0.905 | 0.597 | 0.604 | 0.353 | 0.341 | 0.486 | 0.332 | 0.283 | 0.415 | 0.359 | 0.501 | 0.394 | 0.369 | 0.275 | 0.311 | 0.399
KLQKYYRQNPD [EHHADH_Y683] | 0.948 | 0.503 | 0.694 | 0.765 | 0.448 | 0.474 | 0.419 | 0.417 | 0.464 | 0.348 | 0.591 | 0.482 | 0.371 | 0.42 | 0.413 | 0.565
KMGNIYRTEYG [MRPL3_Y265] | 0.884 | 0.529 | 0.73 | 0.488 | 0.477 | 0.577 | 0.526 | 0.334 | 0.373 | 0.475 | 0.701 | 0.496 | 0.539 | 0.536 | 0.413 | 0.621
KMLEKYKERLN [TLK2_Y259] | 0.838 | 0.693 | 0.641 | 0.381 | 0.492 | 0.834 | 0.557 | 0.444 | 0.5 | 0.43 | 0.789 | 1.27 | 0.475 | 0.463 | 0.46 | 0.634
KNEVLYDGENH [ARFGEF1_Y314] | 0.978 | 0.665 | 0.687 | 0.403 | 0.436 | 0.763 | 0.475 | 0.401 | 0.525 | 0.422 | 0.836 | 0.668 | 0.398 | 0.418 | 0.399 | 0.943
KNKKDYFDMFE [SLC26A3_Y526_YF] | 0.979 | 0.595 | 1.01 | 0.779 | 0.444 | 0.706 | 2.62 | 0.418 | 0.585 | 0.453 | 0.909 | 0.882 | 0.568 | 0.524 | 3.49 | 0.864
KNRDVYSSDYF [USP24_Y2134] | 0.796 | 0.644 | 0.739 | 3.39 | 1 | 0.945 | 1.15 | 0.495 | 4.03 | 1.19 | 0.944 | 0.656 | 5.77 | 2.67 | 2.07 | 1.1
KNSFKYFMSDD [ATRX_Y203_C200S_YF] | 0.942 | 0.556 | 0.587 | 0.475 | 0.478 | 0.869 | 0.638 | 0.412 | 0.55 | 0.392 | 1.02 | 0.628 | 0.418 | 0.425 | 0.416 | 0.856
KPGLKYVTYGN [GALNTL5_Y404] | 1.34 | 1.11 | 2.11 | 0.38 | 0.484 | 0.498 | 0.409 | 0.379 | 0.624 | 0.39 | 0.547 | 0.389 | 0.345 | 0.363 | 0.394 | 0.505
